The test addresses murine B7-DC (murine) (UniProt Q9WUL5). Put plainly: flow cytometry competition; murine bone marrow derived dendritic cells preincubated with PD-1.Ig, then stained with sHIgM12. On the technique in general: Flow cytometry measures light scatter and fluorescence of single cells or particles in a stream.

PD-1.Ig fusion protein (Fc fusion), sequence (Q02242 25-169): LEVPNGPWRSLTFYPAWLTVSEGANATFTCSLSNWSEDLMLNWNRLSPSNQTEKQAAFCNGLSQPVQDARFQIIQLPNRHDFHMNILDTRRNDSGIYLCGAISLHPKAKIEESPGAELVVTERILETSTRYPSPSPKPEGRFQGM
murine B7-DC (murine), sequence (Q9WUL5 20-247): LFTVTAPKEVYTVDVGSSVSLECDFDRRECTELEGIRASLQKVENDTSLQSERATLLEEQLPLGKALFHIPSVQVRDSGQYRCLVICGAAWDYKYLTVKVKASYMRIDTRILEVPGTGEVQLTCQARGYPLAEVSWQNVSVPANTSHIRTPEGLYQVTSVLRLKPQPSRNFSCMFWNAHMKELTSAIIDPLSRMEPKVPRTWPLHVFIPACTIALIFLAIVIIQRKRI

As for PD-1.Ig fusion protein (Fc fusion), the sHIgM12 staining remaining, percent of the level in the absence of PD-1 came out at 50%.
